# Source: patent US11440969B2, “Use of human epididymis protein 4 (HE4) for assessing responsiveness of MUC 16-positive cancer treatment” (Genentech, Inc., priority 2016, dated 2022)
# Values joined by “and” are separate entries in the source; they are usually repeats but may differ in a detail not shown here. Equal entries are not always repeated.
# B1: DMUC5754A: antibody-drug conjugate: humanized IgG1 anti-MUC16 monoclonal antibody and MMAE, linked through protease labile linker maleimidocaproyl-valine-citrulline-p-aminobenzyloxycarbonyl (conjugate, chains of the INN, looked up)
# VH: EVQLVESGGGLVQPGGSLRLSCAASGYSITNDYAWNWVRQAPGKGLEWVGYISYSGYTTYNPSLKSRFTISRDTSKNTLYLQMNSLRAEDTAVYYCARWTSGLDYWGQGTLVTVSS
# VL: DIQMTQSPSSLSASVGDRVTITCKASDLIHNWLAWYQQKPGKAPKLLIYGATSLETGVPSRFSGSGSGTDFTLTISSLQPEDFATYYCQQYWTTPFTFGQGTKVEIK
# modifications: MMAE via mc-vc-PABC linker
# Tests used:
# [1] = DMUC5754A pharmacokinetics in patients (total antibody ELISA; acMMAE and unconjugated MMAE LC/MS/MS); type: in vivo, human
# Excerpt: Pharmacokinetics (PK) of DMUC5754A was characterized following q3w or qlw dosing schedules in both OC and PC patients. Serum or plasma samples at multiple pre-specified time points were quantified for three analytes (unconjugated MMAE, DMUC5754A total antibody, and DMUC5754A conjugate (measured as antibody-conjugated MMAE, acMMAE)). Total antibody (antibody with MMAE-to-antibody ratio equal or greater than zero, including conjugated, partially deconjugated and fully deconjugated antibody) were analyzed using validated enzyme-linked immunosorbent assay methods with the minimum quantifiable concentration of 60 ng/mL. Plasma acMMAE and unconjugated MMAE were determined by using validated LC/MS/MS assays. The lower limit of quantitation (LLOQ) for the acMMAE assay and unconjugated MMAE were 0.359 ng/mL and 0.0359 ng/mL in human plasma, respectively. PK data after Cycle 1, Day 1 dose of DMUC5754A were analyzed with non-compartmental analysis using Phoenix WinNonlin 6.2 (Certara, L. P.), and further evaluated based on dose regimen and cancer type.
# [2] = system: MUC16 expressing mouse ovarian and pancreatic cancer xenograft models; experiment: Mouse xenograft anti-tumor activity; type: in vivo; conditions: single agent
# [3] = Cycle 1, 2.4 mg/kg q3w, OC (n = 29), Mean [SD]
# [4] = Cycle 1, 2.4 mg/kg q3w, PC (n = 10), Mean [SD]
# [5] = q1w 1st dose, 0.8 mg/kg, OC, N 3
# [6] = q1w 1st dose, 1.1 mg/kg, OC, N 7
# [7] = q1w 1st dose, 1.4 mg/kg, OC, N 6
# [8] = q1w 1st dose, 1.4 mg/kg, PC, N 1
# [9] = q1w 1st dose, 1.6 mg/kg, OC, N 4
# [10] = q3w 1st cycle, 0.3 mg/kg, OC, N 3
# [11] = q3w 1st cycle, 0.6 mg/kg, OC, N 3
# [12] = q3w 1st cycle, 1.2 mg/kg, OC, N 3
# [13] = q3w 1st cycle, 1.8 mg/kg, OC, N 3
# [14] = q3w 1st cycle, 2.4 mg/kg, OC, N 29
# [15] = q3w 1st cycle, 2.4 mg/kg, PC, N 10
# [16] = q3w 1st cycle, 3.2 mg/kg, OC, N 3
molecule,measurement,setting,value
B1,acMMAE CL,[1]; [3],25.4 ± 8.39 mL/day/kg
same,acMMAE Vss,[1]; [3],82.1 ± 21.1 mL/kg
same,acMMAE t1/2,[1]; [3],5.01 ± 1.45 days
same,acMMAE Vss,[1]; [4],94.6 [32.4] mL/kg
same,acMMAE t1/2,[1]; [4],5.42 [1.91] day
same,"systemic unconjugated MMAE exposure, fold less than acMMAE exposure","[1]; human, in vivo",approximately 100 fold
same,Total Antibody AUCinf,[1]; [5],33.2 µg·days/mL
same,Total Antibody Cmax,[1]; [5],13 µg/mL
same,acMMAE AUCinf,[1]; [5],386 ng·days/mL
same,acMMAE Cmax,[1]; [5],227 ng/mL
same,Unconjugated MMAE Cmax,"[1]; q1w 1st dose, 0.8 mg/kg, OC, n = 2",1.24 ng/mL
same,Total Antibody AUCinf,[1]; [6],56.1 µg·days/mL
same,Total Antibody Cmax,[1]; [6],17.7 µg/mL
same,Unconjugated MMAE Cmax,[1]; [6],3.23 ng/mL
same,acMMAE Cmax,[1]; [6],301 ng/mL
same,acMMAE AUCinf,"[1]; q1w 1st dose, 1.1 mg/kg, OC, n = 6",612 ng·days/mL
same,Total Antibody AUCinf,[1]; [7],73.0 µg·days/mL
same,Total Antibody Cmax,[1]; [7],23.9 µg/mL
same,Unconjugated MMAE Cmax,[1]; [7],3.73 ng/mL
same,acMMAE Cmax,[1]; [7],449 ng/mL
same,acMMAE AUCinf,"[1]; q1w 1st dose, 1.4 mg/kg, OC, n = 5",813 ng·days/mL
same,Total Antibody AUCinf,[1]; [8],55.7 µg·days/mL
same,Total Antibody Cmax,[1]; [8],17.3 µg/mL
same,Unconjugated MMAE Cmax,[1]; [8],7.59 ng/mL
same,acMMAE AUCinf,[1]; [8],542 ng·days/mL
same,acMMAE Cmax,[1]; [8],204 ng/mL
same,Total Antibody AUCinf,[1]; [9],82.3 µg·days/mL
same,Total Antibody Cmax,[1]; [9],29.7 µg/mL
same,Unconjugated MMAE Cmax,[1]; [9],5.75 ng/mL
same,acMMAE AUCinf,[1]; [9],957 ng·days/mL
same,acMMAE Cmax,[1]; [9],539 ng/mL
same,Total Antibody Cmax,[1]; [10],6.65 µg/mL
same,Unconjugated MMAE AUCinf,[1]; [10],4.33 ng·days/mL
same,Unconjugated MMAE Cmax,[1]; [10],0.675 ng/mL
same,acMMAE AUCinf,[1]; [10],135 ng·days/mL
same,acMMAE Cmax,[1]; [10],93.3 ng/mL
same,Total Antibody AUCinf,"[1]; q3w 1st cycle, 0.3 mg/kg, OC, n = 2",13.1 µg·days/mL
same,Total Antibody AUCinf,[1]; [11],29.5 µg·days/mL
same,Total Antibody Cmax,[1]; [11],16.6 µg/mL
same,Unconjugated MMAE AUCinf,[1]; [11],10.3 ng·days/mL
same,Unconjugated MMAE Cmax,[1]; [11],2.03 ng/mL
same,acMMAE AUCinf,[1]; [11],310 ng·days/mL
same,acMMAE Cmax,[1]; [11],226 ng/mL
same,Total Antibody AUCinf,[1]; [12],81.8 µg·days/mL
same,Total Antibody Cmax,[1]; [12],22.5 µg/mL
same,Unconjugated MMAE AUCinf,[1]; [12],19.2 ng·days/mL
same,Unconjugated MMAE Cmax,[1]; [12],2.84 ng/mL
same,acMMAE AUCinf,[1]; [12],715 ng·days/mL
same,acMMAE Cmax,[1]; [12],337 ng/mL
same,Total Antibody AUCinf,[1]; [13],106.0 µg·days/mL
same,Total Antibody Cmax,[1]; [13],35.5 µg/mL
same,Unconjugated MMAE AUCinf,[1]; [13],33.1 ng·days/mL
same,Unconjugated MMAE Cmax,[1]; [13],4.7 ng/mL
same,acMMAE AUCinf,[1]; [13],1050 ng·days/mL
same,acMMAE Cmax,[1]; [13],618 ng/mL
same,Total Antibody AUCinf,[1]; [14],178.0 µg·days/mL
same,Total Antibody Cmax,[1]; [14],42.2 µg/mL
same,Unconjugated MMAE Cmax,[1]; [14],6.77 ng/mL
same,acMMAE AUCinf,[1]; [14],1850 ng·days/mL
same,acMMAE Cmax,[1]; [14],860 ng/mL and 860 [216] ng/mL
same,Unconjugated MMAE AUCinf,"[1]; q3w 1st cycle, 2.4 mg/kg, OC, n = 28",55.5 ng·days/mL
same,Total Antibody AUCinf,[1]; [15],167.0 µg·days/mL
same,Total Antibody Cmax,[1]; [15],38.9 µg/mL
same,Unconjugated MMAE AUCinf,[1]; [15],63.6 ng·days/mL
same,Unconjugated MMAE Cmax,[1]; [15],7.7 ng/mL
same,acMMAE AUCinf,[1]; [15],1680 ng·days/mL
same,acMMAE Cmax,[1]; [15],737 ng/mL and 737 [115] ng/mL
same,Total Antibody AUCinf,[1]; [16],324.0 µg·days/mL
same,Total Antibody Cmax,[1]; [16],71.4 µg/mL
same,Unconjugated MMAE Cmax,[1]; [16],20 ng/mL
same,acMMAE AUCinf,[1]; [16],3380 ng·days/mL
same,acMMAE Cmax,[1]; [16],1220 ng/mL
same,Unconjugated MMAE AUCinf,"[1]; q3w 1st cycle, 3.2 mg/kg, OC, n = 1",111 ng·days/mL
same,"increase of exposure of acMMAE or total antibody (Cmax or AUCinf, Cycle 1) with dose","[1]; q3w and q1w cohorts, 0.3-3.2 mg/kg, nonlinear PK",not dose proportional
same,anti-tumor activity,[2],potent and selective single agent anti-tumor activity
